The record followed here is patent US20250320480A1, “Immunoglobulin Cleaving Enzyme” (priority 2021, published 2025).

What all share (format): biochemical
The subject of one assay is human IgG. The assay can be described thus: Immunoglobulin specificity on SDS-PAGE: human IgG and IgG Fc fusion proteins. As to conditions: for Hydrolysis of human IgG and IgG Fc fusion proteins: incubated with different antibodies at 37° C., SDS-PAGE. The protocol:
(§1) FIG. 3. Specificity of IdeSork2.0. IdeSork2.0 was mixed with different antibodies and incubated o/n at 37° C. before analysis on SDS-PAGE. The enzyme itself is noted with an arrow. […] Mouse IgG1, mouse IgG2b and human IgA were not affected by IdeSork2.0.
(§2) Various antibodies and antibody based therapeutics were incubated with Xork, IdeS, or IdeZ (1:40 ratio) for 1 hour at 37° C. in PBS, with substrate concentrations ranging between 2-5 mg/mL, before being analyzed on SDS-PAGE. For kinetic studies, a substrate level of 2-200 μM IVIG was used during 10 min at 37° C. before being analyzed on a UHPLC system.

The test system of another assay is IgG1. The assay can be described thus: Comparison to other IgG proteases: IgG1. As to conditions: SDS-PAGE. As for the experimental part: FIG. 10. IdeSork2.0 is having a similar activity compared to IdeS and IdeZ. To investigate if IdeSork2.0 is hydrolyzing IgG in a similar way as IdeS and IdeZ they were all incubated against IgG1 and IgG2 and analyzed on SDS-PAGE. The cleavage patterns look identical, with both IdeSork2.0 and IdeS having less activity towards IgG2.
To further look into the activity of IdeSORK2.0, its activity was compared with IdeS and IdeZ against both IgG1 and IgG2.

A further assay deals with guinea pig IgG. Put plainly: Immunoglobulin specificity on SDS-PAGE: guinea pig IgG. As to conditions: o/n at 37° C. The protocol:
(§3) FIG. 11. Specificity of IdeSork2.0. IdeSork2.0 was mixed with different antibodies and incubated o/n at 37° C. before analysis on SDS-PAGE.
as §2

Another assay has as its system human IgA. Put plainly: Immunoglobulin specificity on SDS-PAGE: human IgA. As to conditions: 37° C. The protocol:
as §1, §2

The next assay deals with IgG. Put plainly: Time-dose assays (enzyme:substrate ratio, time). As for the experimental part: FIG. 8. IdeSork2.0 enzyme: substrate ratio. The impact of enzyme and substrate concentration for the reaction speed was investigated using a Box-Behnken experimental setting, also analyzing the impact of time for the reaction speed. Output was measured as percentage hydrolysis of IgG (top left figure), as well as quantity hydrolyzed IgG per unit enzyme (all other figures).
FIG. 9. IdeSork2.0 enzyme: substrate activity over time. To verify the impact of modifying the enzyme: substrate ratio, an experiment with varying amounts of substrate (5-40 μg) to a set amount of enzyme (1 μg) was conducted over time (30, 60, and 120 min).
To investigate the impact of substrate and enzyme concentration, as well as time needed to complete (>95% hydrolysis) a reaction, a new Box-Behnken assay was designed (FIG. 8). The data was supported by traditional assays, with similar results (FIG. 9). IdeSORK2.0 quite rapidly hydrolyzes the vast majority of the material, but needs a longer time to finish hydrolysis of the last percentages of intact IgG, similar to other immunoglobulin proteases. A ratio of 1:40 hydrolyzes >95% of IgG in 30-60 minutes.
To better understand the optimal conditions needed for the enzyme to exert its activity, a Box-Behnken design was employed for the experiment. Addition of NaCl (0-400 mM), pH (5.5-8.5), [enzyme], [substrate], time, and temperature were parameters investigated. […]

For a further assay, the system named is dog IgG. Put plainly: Immunoglobulin specificity on SDS-PAGE: dog IgG. As to conditions: o/n at 37° C. As for the experimental part:
as §3, §2

A further assay deals with cow IgG. Put plainly: Immunoglobulin specificity on SDS-PAGE: cow IgG. As for the experimental part: as §2
The subject of a further assay is rat IgG. The assay can be described thus: Immunoglobulin specificity on SDS-PAGE: rat IgG. As to conditions: o/n at 37° C. As for the experimental part: as §3, §2
In another assay the target is mouse IgG2a (Mus musculus, UniProt P01863). The assay can be described thus: Immunoglobulin specificity on SDS-PAGE: mouse IgG2a. The settings on record: 37° C. The protocol:
as §1, §2

For another assay, the system named is sheep IgG. Put plainly: Immunoglobulin specificity on SDS-PAGE: sheep IgG. The settings on record: o/n at 37° C. As for the experimental part: as §3, §2
The next assay has as its target mouse IgG2b (Mus musculus, UniProt P01867). Put plainly: Immunoglobulin specificity on SDS-PAGE: mouse IgG2b. The settings on record: 37° C., listed as IdeSork2.0. As for the experimental part:
as §1, §2

For another assay, the target named is mouse IgG1 (Mus musculus, UniProt P01868). The assay can be described thus: Immunoglobulin specificity on SDS-PAGE: mouse IgG1. The settings on record: 37° C., listed as IdeSork2.0. As for the experimental part:
as §1, §2

“Also recorded” adds a separate entry of the source.

Sequence of mouse IgG2a (P01863 whole entry): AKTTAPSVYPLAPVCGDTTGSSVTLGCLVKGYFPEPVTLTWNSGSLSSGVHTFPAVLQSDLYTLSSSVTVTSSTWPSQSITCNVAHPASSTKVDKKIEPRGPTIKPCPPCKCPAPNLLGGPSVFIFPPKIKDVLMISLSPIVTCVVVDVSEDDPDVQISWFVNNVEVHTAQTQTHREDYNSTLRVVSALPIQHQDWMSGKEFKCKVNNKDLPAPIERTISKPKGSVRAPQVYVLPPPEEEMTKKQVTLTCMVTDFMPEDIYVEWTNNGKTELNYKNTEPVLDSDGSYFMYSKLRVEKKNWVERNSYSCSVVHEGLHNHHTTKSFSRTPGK
Sequence of mouse IgG2b (P01867 1-335 isoform P01867-2): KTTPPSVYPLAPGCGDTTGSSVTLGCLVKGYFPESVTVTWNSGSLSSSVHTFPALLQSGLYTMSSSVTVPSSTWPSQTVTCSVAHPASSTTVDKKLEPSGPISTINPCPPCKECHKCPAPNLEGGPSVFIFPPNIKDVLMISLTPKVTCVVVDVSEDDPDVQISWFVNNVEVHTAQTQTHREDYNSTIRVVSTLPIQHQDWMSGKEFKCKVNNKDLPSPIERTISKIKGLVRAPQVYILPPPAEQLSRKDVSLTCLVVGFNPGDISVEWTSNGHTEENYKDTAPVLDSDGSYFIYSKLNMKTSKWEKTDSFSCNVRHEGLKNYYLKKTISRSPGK

B1: IdeSORK2.0: SEQ ID NO: 2 (N terminal 312 amino acids of IdeSORK) with added N terminal methionine and C-terminal His6; 319 amino acids (protein)
chain: MSKRKLLKKIEKKDTSSVLTQKKQTKTLWADGVQVDDKDFKPSTENFGTNYLAAEYGIGKGYYDINKKFDGTDDDLCSGVVAANQLHWWLDRNKDYIEKYRQQSKDNGVTIGNTDIFELNKLHDEDQSNFFDFIKKSFGNKFLQPERLLNMYINGYGYLTSQDKAKTSQPSPSKLNFFQKVFKNNLLTDKTPINDIDEFSSQTKNALQNHKVLAVSFASIKNRGLGHVVTVWGADFDENGKVVALYVTDSDDRSKNIGNAKLGMKKLRIEVSAQDSSTIKLTGFEDKNSGGSLRHLYSLSTGEQIWKKYFEETHHHHHH
modifications: (IdeSORK2.0) Protein of SEQ ID NO 2 engineered to include an additional N terminal methionine and a C-terminal protein purification tag - His6
Take B1: in the assay on human IgG, the “Hydrolysis of monoclonal IgG4” value is reported as “can also hydrolyze”. The “Hydrolysis of polyclonal IgG (e.g. IVIG)” value in the assay with human IgG is given as “near complete hydrolysis”. Besides, the “Preference between human IgG subclasses” value in the assay on human IgG (IgG1 versus IgG2) was “slight preference for IgG1 over IgG2”. In the assay with human IgG (human antibodies with altered hinge), the “Effect of alterations of the hinge region (e.g. LALA-sequence) on activity” value was “did not affect the activity”. For the same molecule, the “Hydrolysis of human IgG and IgG Fc fusion proteins” value in the assay on human IgG is “hydrolyzing all tested human IgGs and IgG Fc fusion proteins”; in the assay on human IgG (listed as IdeSork2.0), “hydrolyzed”. Further, the “Hydrolysis of IgG1” value in the assay on IgG1 is reported as “able to hydrolyze”. Besides, in the assay with guinea pig IgG, the “Activity on guinea pig IgG” value was “showed activity”. Also, the entries for the “Activity towards human IgA” value with human IgA and with human IgA (listed as IdeSork2.0) were “not active” and “not affected”, respectively. Also, the “Hydrolysis of IgG over time at varying substrate amounts” value in the assay with IgG (5-40 μg substrate to 1 μg enzyme, 30, 60 and 120 min) is on record as “Almost all IgG is hydrolyzed within 30 minutes”. In addition, the “Hydrolysis of IgG” value in the assay on IgG (ratio 1:40, 30-60 minutes) is reported as > 95%. In addition, in the assay on dog IgG, the “Activity on dog IgG” value was “only showed activity against horse and guinea pig IgG; also recorded: no visible effect”. Besides, the “Activity on cow IgG” value with cow IgG is “only showed activity against horse and guinea pig IgG”. Also, the “Activity on rat IgG” value in the assay with rat IgG was “only showed activity against horse and guinea pig IgG; also recorded: no visible effect”. In addition, the “Activity towards mouse IgG2a” value was “active” with mouse IgG2a and “could be hydrolyzed” with mouse IgG2a (listed as IdeSork2.0). Besides, the “Activity on sheep IgG” value with sheep IgG was “only showed activity against horse and guinea pig IgG; also recorded: no visible effect”. For the same molecule, the “Activity towards mouse IgG2b” value with mouse IgG2b is “not affected”. In the assay with mouse IgG1, the “Activity towards mouse IgG1” value is given as “not affected”.
